The DeepSol protein solubility set

Assay: soluble on expression in E. coli; label from the status in PepcDB or PDB records

Sequence	soluble on expression in E. coli
ALGVDKPREIAFEVLDRVRTGEAYANLVLPRLLSKHNLSGRDAAFATEITYGTLRNVGLLDEVIKAASGRELSDIDPEVLDVLRLGAYQVMFTRVEDHAAVDTSVKMVGGLKKFQATGFANAILRNITRKEPEQWLKELEPAEELARVAFRTAHPRWIA	not soluble
MAEVKEKRHEELGLSDEQVLEMFRTMLLARKIDERMWLLNRAGKIPFVISCQGQEAAQVGAAFALDREKDYALPYYRDMGVVLAFGMTAKELMLSGFAKAGDPNSGGRQMPGHFGQKKNRIVTGSSPVTTQVPHAVGIALAGKMEKKDLVTFVTFGEGSSNQGDFHEGANFAGVHKLPVIFMCENNKYAISIPVEKQLACKNVSDRAIGYGMPGYTVDGNDPLAVYKAVKEAADRGRRGEGPTLIETVSYRLTAHSSDDDDRVYRDKEEVEEAKKNDSIVTFAAYLKEVGVLTEESEKQMLDEIMHIVNEATEYAENAPYAAPEDALKHVYAE	not soluble
MDKEKVLDKIKKCLALGRSVNEHEAAQALRQAQALMEKYKVNAEDIALSKVSEQKADRKMAFKLAGWQWGVANMIADIFGCKSYQRGKTMMFYGIGNRAETSAYAFDVVYRQISADRRKFLKTCRAGKPSHRTYLADRFCGGWIASAWETVKKFEMSDEEKAIMDGYKKKEYPDMAEARTRDAKSSILQGSKMEYEALTRGMESGKQVKLHYAVNGTGFVKQIGGQT	not soluble
MNMPHKFNQYNKSIPVNKHVIELLENDPSLLPSDIAKQLSISEVEVVKSLPKEMVTMVSGLKTQEILEGLVGFGDVTTIVHSFGSIFEVKAPFPKGKIAHGYYNLMGREGQLHGHLKLDLIQDIALISKPFRGTESHYFGFFNHDGHSVFKIYLGRDKKRQLIPEQVEAFNVLKQEYKLEHHHHHH	soluble
MVSEQHAVDICLDKLRFYEVLSAHGFPVVPTALSLAELDDGDYVVKERYGAGATNIGLRLTKEEANRHAQKLEAPVFQPFIAGAEFSIDLYMTRTGRVKGAVARTREYVVNGESQITTTIRNEKLEDMCIAVASYLRLYGHAVMQVIIDYEGQFHLIECNPRFGGASTVSLEAGLDSFYWFFLESQGGDLDDYPFSRSMKEKRQIRYPADFVIDL	not soluble
MAQEDVTAVATNGAGPVETHLVFTEFKQMLLVEAQKVGDAVTFYKSAFGAIESGHSLYPKRKLDQELPHVLSSELNLAGSSFVVCDVSSLPGFSTAKSEGSGVTFLLGTKDAEAAVAKAVDAGAVKVEVTEAEVELGFKGKVTDPFGVTWIFAEKKTVITDENKEV	soluble
MGKILVLSDIHYPYCDIDEINKIMLSERPSLTVLLGDIIVSKSEDYRNFIDKLKIRKNIIYVKGDEDKFRGDFDLIKIKNNGKRFILLHGHQYFNENNEYSLAKVLKKMNDNIPPLLFCIFFRIMLRNFKDTIILGHSHAL	soluble
MKAKITGEDDVRVGLHVTDNNGVKHKIEMEFNGEIKYHNQDGYPDKPKNRTPNGNAHVNQTCRYARYHVYQETEYTPLPPEENLPGIKKVKQAIADLSVKEFEAYFSDTYDQVLSNHPSVTPPVPHPESVPQNGYILYLIDVYLDDNDEIEAVSDIHLQYLDENGDKTQDWNDDPFPDRQPDARLQLFGKYVPSMDVFQEFVVYHLRCQLRDVYIGAGLEPPEKYRVLGRGDDDLTSRYHNDKVTIYDDYHLEEADIPGYELEFDYGFGELGKQSVINAKRKGIGAENPDDADSRLANPSQDGEEGLLETVSSVLRGSDTDQTET	not soluble
MGSDKIHHHHHHMLSNLVSEFPQHEPRPANAPRALEGIRVVDFTHFIAGPFATMMLADMGAEVIKIEAPGRGDEFRYYPPAHPQDESIGAPYLWANRNKRSIALDLKHEDGRRIARELIATADVVAENFSTGVMERLGLGYEACRESNPELIYCSVSAYGREGAFADRLGFDPVAQAESGFVSMNGYPDRLGVRALSPVMDISTAMMASNAILGALVARERSGKGQAVEVSLFDNAVLMTGYATVQHLFTGDEPQRHGNTSPDTCPSGVFKASDGAFYINCGNNKIFHRLASQVLEMPELAADPVLADRNGRIARRDELFRILDEAFIRHPWAYWQQRMRAASIPCGEVRSVGEALRSAEARERKLVSRLEHPDLGWLPNISLPFRFSETPMEDPSPAPRIGEHSRDILTHVLGYEDDSASALLDSGVVYSSVEKARAG	not soluble
MNALSGLQTHEDSTCCNRFCRPDERSASGNSTLLRFGGFFADQTYLQVTRLMQRIHYLHQRLVIDGFVRSEEDGGVFLAFGLEHHHHHH	not soluble
MSLHPASANLSPSSVKNCSAKTFGFLILPNFTTIGLASAVETLRMANLAARKPLYRSVLIAADDAPVVASNGMRVLPDYNITNAPALDALLVVGANPIDRSRSNRPLIDWLRQLARQRLPLGGICTGSYLLAKAELLKGYRCTIHWEDLPTLQAHFPGIVISSQLFELDRDRYTCSGGVAAMDMMLQLVARDTGGQDIAAKAAELLLCDRVRGEREGHHHHHH	soluble
MGSDKIHHHHHHLLQRTFNIQHHSSLPLLSILSYFPTSLLKPGGRMAIVLPQGRFNNSSDKNIRDFIAERCRILAVVGLHGNTFKPHTGTKTSVLFVQKWNDDPKAGALCPRQDDYNIFFATMRKSGKDNSGDKIWRKISSSTASPPDDELSDLMPPSPVQRVVGVEGDFLRDNHEHLVVDHDLYNHEGKTEDGIAEAFIEFAKKENFSFFELSPSVTPFDAVKYQQLMDGLEAVEVSLNQALDHNLHFRFDSEFFKRIYFQVEAEIKALPHTRLSSTQPIIIHPTEIKREYVEDDSSGVLFFRTQNLRPLRVDLSNQVYISEEDAAKLSKNIIQKNDVLITITGANFGDTLIFKGEIEAIALSHVFILRNKKISQSFLAVFLNTFYGREQINKGMYGGV	not soluble
MGSDKIHHHHHHQGPQCNHAQLPFQQMTPVPYDSTPYSPQDTMPEQCSNPEVEAYIADWEAGKIDFTTIKANDSIAADQRFCKTLDDDGNISEVKDCDRTKSPVGYIWKELSDSPVVIGITDGGKSDHAPHFHGQPECYYVVNGEGQTLADNQFKKLGTGQYFYIPGATIHNTPIMSEKGLGVIYWYPNNAHFDGFKYYWRKDVKNLRVAEEAFDRVDAIRKRDLNLGPYGTNEAFFKK	not soluble
QILSPNYKARADSNAFYQKPVYPSRGVIYDRNGELLVYNEPAYDLVAVTKEVGEFDTLALCQTLNVEPEYVRKRFQDIRDRRINPGYSPYVPQLLLAQLNPREAGRFQEQLFKFPGFSIRPRAIRQYKYHGAAHVLGYLSEANMRDLERDSSLIAGDYVGRSGIERQYEKTLRGEKGIEVLLRDARGRIKGHYSDGKYDSPAIPGRDLTLSIDSKLQTLGEQLMQGKRGAIVMIEPETGEVLCLVSSPSYDPSLLAGKDRGKNHLEMEHDRNKPLYARAIQATYPPGSTFKPAQGAIFLQEGVIRPTDAFSCYHGFPPLNNRPACHSHGSP	not soluble
SGSEPTKVMVAVNASTIKDYPNPSISCKRAFEWTLEKIVRSNTSDFKILLLHVQVVDEDGFDDVDSIYASPEDFRDMRQSNKAKGLHLLEFFVNKCHEIGVGCEAWIKTGDPKDVICQEVKRVRPDFLVVGSRGLGRFQKVFVGTVSAFCVKHAECPVMTIKRNADETPSDPADD	soluble
MNNLPLLNDLRVFMLVARRAGFAAAAEELGVSPAFVSKRVSLLEQTLNVMLLHRTTRRVTITEEGERIYEWAQRILQDVDEMMDELSDVRQVPQGTLRIISSFGFGRRVVAPALSALALQYPQLELRFDVQDRLVDLVNEGVDLDIRVGDDIAPNLIARQLAANHRVLCASPQFLARHAPPKQLSDLAALPCLVIKERDHPFGVWQLHSKEGQHAIKVTGPLSSNHGEIVHQWCLDGQGIALRSWWDVRENIASGHLVQVLPDYWQPANVWAVYVSRLATSAKIRTTVEFLRHYFQLHYPQHEPTASAVGRGD	not soluble
MAHHHHHHMEASAPGKVLILGSYLIVESCTPANVGISIGVNARFTTRIVKAEPTTTGASGKTTIHMRSPQFRQSFCFVANTSAPGTVAVKQTEGPGSPFIFNAVLYSVAAAQSLGSSTDGEIWVELLADNDFYSQRNYLESQGKDVNVANLRSLPPHLPLVGAISKTGLGSSAAMTTSIVACLCHHFNADGCSHEYVHRIAQIAHSVTQGKIGSGFDVYTAVYGTCAYRRFPVSRVSMMMMASAQPPSSVEVETLRRCVDMNEVWVPPESFRLPPGVKLVLGDVHQGGSCTPGMVAKIMAWRKSVADTPDNLWEQLRRNNEAYIAALRRMIDEAAAKPDVYAASMAALQQVPSLPLFRADGESMQCIVEASRFAARSRALLRDMGVAAEVKVEPVELTDLLDDTATLPGVFAVGCPGAGGYDAVFALVLGDECAAAVEAFWEHYTKMNVCPLLVREDPSGLLIQPPP	soluble
MAEEPYVFTLKKRNNDDAEDDWDRYSENVRPTRRGRKIDALKRNVEEVVTEETARLKLDQLLEELQNLECSEESEELQKILDFCSWFEEKLAIGFHKVYYELLWKIISRHGFLEKYKEDERMLKIWEKMADNSAGHAHDIYQFAISRKSLVKCAALYARWSQSVELAGAYVEARRVLILARTNCAVPIQIVNDAEDALEMREMRRHLQERDSDDDEEEEETRKAFTNLPVIGDNHTVPIVRLPSMCSDTTKKAMKFDTGNVERVNPVCKDNQMQPFEVLSYTDADDVEYLRNVHELHAHIERYAIKETTNPSITGSSTSEAAAVTIYPVSSSEFEVWTVEGSGPTKAKARMAIKRVFKDLSFEEYAASLLPNHPSMVRATAKKLDFDETL	not soluble
SLKAIKNGTILTGTGETIKQGTLLIQDGKVLEVGQRVDTPANAKLIDATGKYVTPGLIDVHTHIGVFSEGLGRTGHDFNETTAAATPYIRAIDGIYPFDQGFEDARQSGVTTVQIMPGSANVIGGEMVTVKTAGTVVDEMIVRAPSGMKAAFGENPKNVHGGKGKLPATRMGVAALFRQQLYQAQDYLKRFEKGELEKRDLGMEQLAKVLRKEIPLRVHAHRADDIATVLRMVDEFDLEATIEHCTEGHLIADHIAKYNVKVSVGPTMTSRTKQELVNKGWHTLIELEKHGIPFSITTDHPVVTINHLVTSAIQAVKAGLSEQSAFQAITLRAAEHIGVEQQVGSLEKGKDGDFVIWSDHPFTATAQVEATYINGKCVTGSHC	not soluble
MGSDKIHHHHHHMNRGKALQLVKPHLTEHRYQHTIGVMETAIDLAKLYGADQQKAELAAIFHDYAKFRDKNEMRTLIREKLSQQDILFYGDELLHAPCGAYYVREEVGIEDEDVLQAIRFHTTGRPNMSLLEKIIFLADYIEPNRQFPGVEKVRTQAKTDLNGAIISSLVNTITFLLKKNQPIYPDTLATYNQLLLEQK	not soluble
MKETEILNRAYNYMCTYHKDDATGHDIAHINRVLRLATYIAEQEQSQHMLTIQLASLLHDTVDSKLTNHEKALTKLKSFLKDLQLPKEQQQHILHIIKHISYRHGQNNEVSLTLEGQIVRDADRLDAIGAIGIARTFQFAGHFNEPMWVEHSTKHITETDDAHYDQWSPSAIKHFYEKLLKLKSLMHTETAKQLAAQRHQYMENFINQFFEEWYFLEHHHHHH	soluble
MAHHHHHHMASSSDADGKEVGSSGEGNRATGGKWRRPSLAQQRARRAQLPPAFDVVHWNDEDISRGHLLRVLHRDTFVVLDYHRQARMLTEEGNKAERVVSVMLPAVYTARFLAVLEGRSEKVEVHSRYTNATFTPNPAAPYTFTLKCTSTRPAQQKQQVAGEEGDETFEWTVEFDVAESLMLQRFLTQALHYNTGFARTSV	soluble
